# Values of other authors in patent US12194157B2, “Carrier for targeted delivery to a host” (Finncure Oy, priority 2020, dated 2025).
# Biological target: ACE2 (Homo sapiens, UniProt Q9BYF1)
# Settings: simulation, ref [8]
# Sequence of ACE2 (Q9BYF1 18-805): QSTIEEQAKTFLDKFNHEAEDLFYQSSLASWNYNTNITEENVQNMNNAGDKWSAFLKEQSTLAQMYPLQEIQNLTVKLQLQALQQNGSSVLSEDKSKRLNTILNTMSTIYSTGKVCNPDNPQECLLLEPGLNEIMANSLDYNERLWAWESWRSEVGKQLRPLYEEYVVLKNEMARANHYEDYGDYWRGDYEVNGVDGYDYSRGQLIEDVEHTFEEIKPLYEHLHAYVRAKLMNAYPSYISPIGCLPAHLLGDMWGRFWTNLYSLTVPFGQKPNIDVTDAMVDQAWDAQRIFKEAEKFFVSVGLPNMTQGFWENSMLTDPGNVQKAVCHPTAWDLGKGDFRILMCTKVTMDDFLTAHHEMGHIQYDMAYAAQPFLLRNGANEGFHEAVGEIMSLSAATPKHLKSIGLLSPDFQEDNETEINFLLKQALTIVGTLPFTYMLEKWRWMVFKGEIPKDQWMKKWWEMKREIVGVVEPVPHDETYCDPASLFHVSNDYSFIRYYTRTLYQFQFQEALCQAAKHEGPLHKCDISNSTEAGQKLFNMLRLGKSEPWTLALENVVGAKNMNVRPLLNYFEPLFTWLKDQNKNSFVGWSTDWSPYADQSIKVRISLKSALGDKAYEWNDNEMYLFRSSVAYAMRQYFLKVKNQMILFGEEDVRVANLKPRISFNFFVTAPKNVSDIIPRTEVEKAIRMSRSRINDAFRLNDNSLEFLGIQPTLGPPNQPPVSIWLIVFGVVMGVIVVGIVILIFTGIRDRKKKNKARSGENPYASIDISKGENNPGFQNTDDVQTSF
row,Substance,binding affinity towards the ACE2 receptor relative to YKYRYL
1,YKYNYL (Potential alternative synthetic hexapeptide variant) [alternative synthetic hexapeptide variant from simulation],even stronger binding affinity
2,YKYNYI (Potential alternative synthetic hexapeptide variant) [alternative synthetic hexapeptide variant from simulation],even stronger binding affinity
